The assay concerns the target streptavidin (UniProt P22629). The assay can be described thus: recovery of cells on streptavidin coated magnetic beads (Dynal).

The record followed here is patent US20080193979A1.

Sequence of streptavidin (P22629 37-163 limits assumed): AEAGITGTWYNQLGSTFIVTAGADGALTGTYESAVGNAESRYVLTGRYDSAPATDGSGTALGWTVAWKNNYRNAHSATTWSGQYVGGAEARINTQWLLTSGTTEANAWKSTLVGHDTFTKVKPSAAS

Substance “Ramos IgM (unselected / wild-type Ramos cells, surface and secreted IgM) (antibody)” yielded a proportion of cells which bind to the beads of 0.02%.
